In PMC3843485 one finds stoichiometry N data, which are given here for 1 substance.

The experiment has as its target Pseudomonas aeruginosa cytoplasmic heme binding protein PhuS, apo form (Pseudomonas aeruginosa). Briefly: crystal structure.

A word on the stoichiometry N: it is a count of units in the complex or per binding partner.

Consider “Pseudomonas aeruginosa cytoplasmic heme binding protein PhuS, apo form (natural protein)”, for which the stoichiometry N was determined as 2.
